Assay results from publication PMC4434323.

biological target: T1, M03D4.4 (M03D4.4) (Caenorhabditis elegans) (UniProt Q21494)
T1 sequence: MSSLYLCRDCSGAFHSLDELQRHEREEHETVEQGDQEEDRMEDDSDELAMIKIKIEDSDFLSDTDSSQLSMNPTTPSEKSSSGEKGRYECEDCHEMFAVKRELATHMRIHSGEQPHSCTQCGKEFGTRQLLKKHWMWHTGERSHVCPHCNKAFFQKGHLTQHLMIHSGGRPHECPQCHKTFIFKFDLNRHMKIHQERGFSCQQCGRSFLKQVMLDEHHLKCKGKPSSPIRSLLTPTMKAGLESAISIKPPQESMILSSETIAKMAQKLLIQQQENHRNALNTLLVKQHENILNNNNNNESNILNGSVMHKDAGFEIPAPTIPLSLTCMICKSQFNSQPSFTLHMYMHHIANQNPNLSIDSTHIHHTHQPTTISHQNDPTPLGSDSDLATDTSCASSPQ

First: GCATGGAA (double strand) [8-mer GCATGGAA]
Second: ATGCATGA (double strand) [8-mer ATGCATGA]
The binding signal (PBM E-score (-0.5 to 0.5)) of the first is lower: 0.491 for the first, 0.499 for the second.

Going from “CATGCATG (double strand) [8-mer CATGCATG]” to “ATCATGCA (double strand) [8-mer ATCATGCA]”, the binding signal (PBM E-score (-0.5 to 0.5)) falls from 0.498 to 0.497.

First: TGCATGAA (double strand) [8-mer TGCATGAA]
Second: GATCATGC (double strand) [8-mer GATCATGC]
The binding signal (PBM E-score (-0.5 to 0.5)) of the first is higher: 0.495 for the first, 0.493 for the second.

Compared with “ACGCATGA (double strand) [8-mer ACGCATGA]”, “ATGCATGC (double strand) [8-mer ATGCATGC]” is lower in binding signal (PBM E-score (-0.5 to 0.5)): 0.495 for the first, 0.491 for the second.

Going from “TCATGCAA (double strand) [8-mer TCATGCAA]” to “GTCATGCA (double strand) [8-mer GTCATGCA]”, the binding signal (PBM E-score (-0.5 to 0.5)) rises from 0.493 to 0.495.

Going from “CGCATGAA (double strand) [8-mer CGCATGAA]” to “AATGCATG (double strand) [8-mer AATGCATG]”, the binding signal (PBM E-score (-0.5 to 0.5)) rises from 0.491 to 0.494.

Going from “ACATGCAT (double strand) [8-mer ACATGCAT]” to “GTGCATGA (double strand) [8-mer GTGCATGA]”, the binding signal (PBM E-score (-0.5 to 0.5)) rises from 0.491 to 0.494.

In the case of “TCCATGCA (double strand) [8-mer TCCATGCA]”, the binding signal (PBM E-score (-0.5 to 0.5)) is reported as 0.491.

biological target: T2, F55C5.11 (F55C5.11) (Caenorhabditis elegans) (UniProt Q1ZXU0)
T2 sequence: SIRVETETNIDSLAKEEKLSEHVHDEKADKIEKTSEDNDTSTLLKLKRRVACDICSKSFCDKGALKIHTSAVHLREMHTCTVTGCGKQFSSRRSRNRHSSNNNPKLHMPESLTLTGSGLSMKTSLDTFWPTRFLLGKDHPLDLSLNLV

First: AGTGTCAC (double strand) [8-mer AGTGTCAC]
Second: GTGTGACA (double strand) [8-mer GTGTGACA]
The binding signal (PBM E-score (-0.5 to 0.5)) of the first is higher: 0.487 for the first, 0.486 for the second.

Going from “GGTGACAA (double strand) [8-mer GGTGACAA]” to “GTGTCACA (double strand) [8-mer GTGTCACA]”, the binding signal (PBM E-score (-0.5 to 0.5)) rises from 0.487 to 0.488.

Going from “CGGTGACA (double strand) [8-mer CGGTGACA]” to “CTGTCACC (double strand) [8-mer CTGTCACC]”, the binding signal (PBM E-score (-0.5 to 0.5)) falls from 0.488 to 0.487.

Compared with “GGGTGACA (double strand) [8-mer GGGTGACA]”, “AGGTGACA (double strand) [8-mer AGGTGACA]” is lower in binding signal (PBM E-score (-0.5 to 0.5)): 0.494 for the first, 0.486 for the second.

Going from “TGTGACAA (double strand) [8-mer TGTGACAA]” to “ATGTGACA (double strand) [8-mer ATGTGACA]”, the binding signal (PBM E-score (-0.5 to 0.5)) rises from 0.485 to 0.489.

Compared with “GGTGTCAC (double strand) [8-mer GGTGTCAC]”, “GGTGACAC (double strand) [8-mer GGTGACAC]” is higher in binding signal (PBM E-score (-0.5 to 0.5)): 0.486 for the first, 0.496 for the second.

Compared with “TGGTGACA (double strand) [8-mer TGGTGACA]”, “GTGACAAA (double strand) [8-mer GTGACAAA]” is lower in binding signal (PBM E-score (-0.5 to 0.5)): 0.487 for the first, 0.484 for the second.

biological target: atf-7 (C07G2.2) (Caenorhabditis elegans) (UniProt Q86MD3)
Sequence (Q86MD3 339-508): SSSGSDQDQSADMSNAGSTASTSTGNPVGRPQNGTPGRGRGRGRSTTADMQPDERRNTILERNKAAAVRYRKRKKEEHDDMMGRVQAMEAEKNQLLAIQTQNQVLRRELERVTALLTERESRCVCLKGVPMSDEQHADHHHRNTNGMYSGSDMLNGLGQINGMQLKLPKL

Compared with “ACGTCACC (double strand) [8-mer ACGTCACC]”, “ATACGTCA (double strand) [8-mer ATACGTCA]” is lower in binding signal (PBM E-score (-0.5 to 0.5)): 0.496 for the first, 0.494 for the second.

“CACGTCAC (double strand) [8-mer CACGTCAC]” and “ACGTCACT (double strand) [8-mer ACGTCACT]” are the same in binding signal (PBM E-score (-0.5 to 0.5)): 0.496 for the first, 0.496 for the second.

biological target: T3, K11D2.4 (K11D2.4) (Caenorhabditis elegans) (UniProt G5EBU1)
T3 sequence: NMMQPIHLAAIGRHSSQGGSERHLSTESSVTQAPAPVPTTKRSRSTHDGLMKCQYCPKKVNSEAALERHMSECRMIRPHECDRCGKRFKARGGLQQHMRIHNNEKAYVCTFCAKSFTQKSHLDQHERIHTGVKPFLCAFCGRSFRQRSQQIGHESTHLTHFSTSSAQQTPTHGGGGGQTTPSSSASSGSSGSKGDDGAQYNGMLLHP

First: AAAAAAGA (double strand) [8-mer AAAAAAGA]
Second: AAAAAAGT (double strand) [8-mer AAAAAAGT]
The binding signal (PBM E-score (-0.5 to 0.5)) of the first is higher: 0.495 for the first, 0.494 for the second.

First: AAAAAACA (double strand) [8-mer AAAAAACA]
Second: ACAAAAAA (double strand) [8-mer ACAAAAAA]
The binding signal (PBM E-score (-0.5 to 0.5)) of the first is higher: 0.495 for the first, 0.494 for the second.

Going from “AATAAAAA (double strand) [8-mer AATAAAAA]” to “CGAAAAAA (double strand) [8-mer CGAAAAAA]”, the binding signal (PBM E-score (-0.5 to 0.5)) falls from 0.496 to 0.495.

biological target: T4, ztf-27 (T09F3.1) (Caenorhabditis elegans) (UniProt G5EDA0)
T4 sequence: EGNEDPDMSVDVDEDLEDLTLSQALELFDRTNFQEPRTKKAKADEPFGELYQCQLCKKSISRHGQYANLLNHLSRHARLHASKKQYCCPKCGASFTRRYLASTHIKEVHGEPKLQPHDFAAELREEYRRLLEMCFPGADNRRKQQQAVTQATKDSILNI

Compared with “TACGCCAA (double strand) [8-mer TACGCCAA]”, “TACACCAA (double strand) [8-mer TACACCAA]” is higher in binding signal (PBM E-score (-0.5 to 0.5)): 0.48 for the first, 0.483 for the second.

Compared with “ACACCAAT (double strand) [8-mer ACACCAAT]”, “ATGGTGCA (double strand) [8-mer ATGGTGCA]” is higher in binding signal (PBM E-score (-0.5 to 0.5)): 0.478 for the first, 0.487 for the second.

Compared with “GTGCACCA (double strand) [8-mer GTGCACCA]”, “TGGTGCAA (double strand) [8-mer TGGTGCAA]” is lower in binding signal (PBM E-score (-0.5 to 0.5)): 0.484 for the first, 0.483 for the second.

First: TGCGCCAA (double strand) [8-mer TGCGCCAA]
Second: ATGGTGTA (double strand) [8-mer ATGGTGTA]
The binding signal (PBM E-score (-0.5 to 0.5)) of the first is lower: 0.478 for the first, 0.485 for the second.

“AATGGTGT (double strand) [8-mer AATGGTGT]” and “ATGGTGTG (double strand) [8-mer ATGGTGTG]” are the same in binding signal (PBM E-score (-0.5 to 0.5)): 0.477 for the first, 0.477 for the second.

First: TGCACCAA (double strand) [8-mer TGCACCAA]
Second: TACACCCA (double strand) [8-mer TACACCCA]
The binding signal (PBM E-score (-0.5 to 0.5)) of the first is higher: 0.488 for the first, 0.477 for the second.

First: ACACCATA (double strand) [8-mer ACACCATA]
Second: TGGTGTAA (double strand) [8-mer TGGTGTAA]
The binding signal (PBM E-score (-0.5 to 0.5)) of the first is lower: 0.479 for the first, 0.48 for the second.

biological target: T5, bed-3 (F25H8.6) (Caenorhabditis elegans) (UniProt Q19787)
T5 sequence: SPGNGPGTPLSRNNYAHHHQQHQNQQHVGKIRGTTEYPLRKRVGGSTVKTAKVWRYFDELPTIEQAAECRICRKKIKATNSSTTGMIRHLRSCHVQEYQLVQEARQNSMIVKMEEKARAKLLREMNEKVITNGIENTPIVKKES

First: TCTCGAGA (double strand) [8-mer TCTCGAGA]
Second: CTCGAGAC (double strand) [8-mer CTCGAGAC]
The binding signal (PBM E-score (-0.5 to 0.5)) of the first is higher: 0.499 for the first, 0.497 for the second.

Compared with “ACTCCCGA (double strand) [8-mer ACTCCCGA]”, “ATCTCGAG (double strand) [8-mer ATCTCGAG]” is higher in binding signal (PBM E-score (-0.5 to 0.5)): 0.49 for the first, 0.497 for the second.

First: TCCCGAGA (double strand) [8-mer TCCCGAGA]
Second: GATCCCGA (double strand) [8-mer GATCCCGA]
The binding signal (PBM E-score (-0.5 to 0.5)) of the first is higher: 0.493 for the first, 0.49 for the second.

Compared with “ACTCTCGA (double strand) [8-mer ACTCTCGA]”, “GCTCTCGA (double strand) [8-mer GCTCTCGA]” is higher in binding signal (PBM E-score (-0.5 to 0.5)): 0.49 for the first, 0.491 for the second.

Compared with “CTCGAGAG (double strand) [8-mer CTCGAGAG]”, “CCTCGAGA (double strand) [8-mer CCTCGAGA]” is lower in binding signal (PBM E-score (-0.5 to 0.5)): 0.493 for the first, 0.492 for the second.

Going from “TCCCGGGA (double strand) [8-mer TCCCGGGA]” to “GATCTCGA (double strand) [8-mer GATCTCGA]”, the binding signal (PBM E-score (-0.5 to 0.5)) rises from 0.491 to 0.493.

First: AGTCTCGA (double strand) [8-mer AGTCTCGA]
Second: CTCGAGAA (double strand) [8-mer CTCGAGAA]
The binding signal (PBM E-score (-0.5 to 0.5)) of the first is higher: 0.494 for the first, 0.491 for the second.

“GGTCTCGA (double strand) [8-mer GGTCTCGA]” showed a binding signal (PBM E-score (-0.5 to 0.5)) of 0.491.

biological target: T6, T22C8.4 (T22C8.4) (Caenorhabditis elegans) (UniProt Q22677)
T6 sequence: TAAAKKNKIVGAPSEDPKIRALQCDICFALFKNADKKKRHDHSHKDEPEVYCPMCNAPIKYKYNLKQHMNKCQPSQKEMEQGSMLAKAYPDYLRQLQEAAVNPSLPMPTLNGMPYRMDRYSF

Going from “AGCAGGGG (double strand) [8-mer AGCAGGGG]” to “CCCCTGCC (double strand) [8-mer CCCCTGCC]”, the binding signal (PBM E-score (-0.5 to 0.5)) falls from 0.499 to 0.479.

Compared with “CCCTGCAG (double strand) [8-mer CCCTGCAG]”, “CCCCTGCA (double strand) [8-mer CCCCTGCA]” is higher in binding signal (PBM E-score (-0.5 to 0.5)): 0.483 for the first, 0.493 for the second.

Compared with “GCAGGGGC (double strand) [8-mer GCAGGGGC]”, “CAGCAGGG (double strand) [8-mer CAGCAGGG]” is lower in binding signal (PBM E-score (-0.5 to 0.5)): 0.498 for the first, 0.494 for the second.

Going from “CCCCCTGC (double strand) [8-mer CCCCCTGC]” to “ACCCCTGC (double strand) [8-mer ACCCCTGC]”, the binding signal (PBM E-score (-0.5 to 0.5)) rises from 0.488 to 0.494.

First: CCCCTGCG (double strand) [8-mer CCCCTGCG]
Second: AGCAGGGA (double strand) [8-mer AGCAGGGA]
The binding signal (PBM E-score (-0.5 to 0.5)) of the first is higher: 0.493 for the first, 0.466 for the second.

For “CCCTGCTC (double strand) [8-mer CCCTGCTC]”, the binding signal (PBM E-score (-0.5 to 0.5)) was 0.479.
